Assay [1] deals with T1, wild-type human PTHR (human, UniProt Q03431 27-593).
T1 construct: whole, on cells; also called PTHR-WT; intact PTHR
T1 sequence (looked up): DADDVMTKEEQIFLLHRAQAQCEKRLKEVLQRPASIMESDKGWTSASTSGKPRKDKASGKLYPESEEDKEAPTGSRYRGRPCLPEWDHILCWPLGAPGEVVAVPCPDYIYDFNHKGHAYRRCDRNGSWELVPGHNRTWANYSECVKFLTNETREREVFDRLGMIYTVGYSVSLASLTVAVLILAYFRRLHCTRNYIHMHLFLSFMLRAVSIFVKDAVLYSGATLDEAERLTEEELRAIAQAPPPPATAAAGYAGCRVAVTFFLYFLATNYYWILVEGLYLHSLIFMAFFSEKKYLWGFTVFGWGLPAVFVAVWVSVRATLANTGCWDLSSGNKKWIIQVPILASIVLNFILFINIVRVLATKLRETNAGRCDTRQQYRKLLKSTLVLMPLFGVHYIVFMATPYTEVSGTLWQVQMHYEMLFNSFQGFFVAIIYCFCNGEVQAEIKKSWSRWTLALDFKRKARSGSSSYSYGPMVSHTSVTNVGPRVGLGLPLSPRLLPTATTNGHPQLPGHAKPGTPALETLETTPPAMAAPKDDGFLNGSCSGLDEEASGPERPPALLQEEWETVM
The experiment in a line: competition binding, HKRK-B7 cells, 125I-PTH(1-34) tracer.

Assay [2] concerns the target T1, wild-type human PTHR. Described as above. As to the method:
Receptor binding—Binding to the wild-type human PTHR in intact HKRK-B7 cells and ROS 17/2.8 cells was assessed using ¹²⁵I-PTH(1-34) as a tracer radioligand, as described (Shimizu, M., (2001) Endocrinology 142:3068-3074). In brief, the cells in 24-well plates (about 500,000 cells per well) were incubated in binding buffer containing radioligand (about 100,000 cpm per well) with or without unlabeled peptide ligand (3×10⁻⁹ to 1×10⁻⁵ M) for four hours at 15° C. The binding mixture was then removed by aspiration, the cells were rinsed three times with binding buffer, lysed in 1 M NaOH, and the entire lysate was counted for gamma-irradiation in a gamma counter. Binding to PTHR-delNt in COS-7 cell membranes was assessed in 96-well, vacuum filtration plates (Multiscreen-Durapore HV, […], Millipore Corp., Millford, Mass.) using ¹²⁵I-[Aib^{1,3},M]PTH(1-15)NH₂ as a tracer radioligand, as described (Dean, T., (2006) Mol Endocrinol 20:931-942). In brief, cell membranes (20 μg/well) were incubated in membrane binding buffer containing radioligand (30,000 cpm/well) with or without unlabeled peptide ligand (3×10⁻⁹ to 1×10⁻⁵ M) for 90 minutes at 21° C. The plates were then subject to rapid vacuum filtration, the filters were washed once with buffer, detached from the plate and counted for gamma-irradiation in a gamma counter. Non-specific binding was defined as the binding observed in the presence of 1×10⁻⁶ M PTH(1-31)NH₂ for HKRK-B7 and ROS 17/2.8 cells, and 1×10⁻⁶ M [Aib^{1,3},M]PTH(1-15)NH₂ for PTHR-delNt. Specifically bound radioactivity was calculated as a percentage of the radioactivity specifically bound in the absence of competing ligand.
Cyclohexylalanine and glutamate substitutions were introduced into [Ala¹,Arg¹⁹]hPTH(1-31)NH₂. The helical residue values were calculated from [θ]₂₂₂, the mean-residue elipticities observed in the CD spectra at 222 nm. Competition binding studies were performed in intact HKRK-B7 cells stably transfected with the hPTHR using ¹²⁵I-[Nle^{8,21},Tyr³⁴]rPTH(1-34)NH ₂ tracer radioligand, and in membranes prepared from COS-7 cells transiently transfected with hPTHR-delNt and a negative-dominant Gαs using ¹²⁵I-[Aib^{1,3},Nle⁸,Gln¹⁰,Har¹¹,Ala¹²,Trp¹⁴,Tyr¹⁵]rPTH(1-15)NH₂ tracer radioligand. Binding values (nM) are means (+/−s.e.m.) of data from the number of experiments indicated (n).
This is another data set of the same source.

Assay [3] has as its target PTHR-delNt (human) (UniProt Q03431). The experiment in a line: competition binding, COS-7 membranes, 125I-[Aib1,3,M]PTH(1-15) tracer.

Where no end group is shown, it is not given here. [ ]: non-standard residue; d: D form. Cha = N[C@@H](CC1CCCCC1)C(=O)O

B1: [Ala^1,Arg^19]hPTH(1-31)NH2 Val^31→Cha (peptide)
peptide: AVSEIQLMHNLGKHLNSMRRVEWLRKKLQD[Cha]-NH2
modifications: N-terminus assumed
SMILES: CC[C@H](C)[C@H](NC(=O)[C@H](CCC(=O)O)NC(=O)[C@H](CO)NC(=O)[C@@H](NC(=O)[C@H](C)N)C(C)C)C(=O)N[C@@H](CCC(N)=O)C(=O)N[C@@H](CC(C)C)C(=O)N[C@@H](CCSC)C(=O)N[C@@H](Cc1c[nH]cn1)C(=O)N[C@@H](CC(N)=O)C(=O)N[C@@H](CC(C)C)C(=O)NCC(=O)N[C@@H](CCCCN)C(=O)N[C@@H](Cc1c[nH]cn1)C(=O)N[C@@H](CC(C)C)C(=O)N[C@@H](CC(N)=O)C(=O)N[C@@H](CO)C(=O)N[C@@H](CCSC)C(=O)N[C@@H](CCCNC(=N)N)C(=O)N[C@@H](CCCNC(=N)N)C(=O)N[C@H](C(=O)N[C@@H](CCC(=O)O)C(=O)N[C@@H](Cc1c[nH]c2ccccc12)C(=O)N[C@@H](CC(C)C)C(=O)N[C@@H](CCCNC(=N)N)C(=O)N[C@@H](CCCCN)C(=O)N[C@@H](CCCCN)C(=O)N[C@@H](CC(C)C)C(=O)N[C@@H](CCC(N)=O)C(=O)N[C@@H](CC(=O)O)C(=O)N[C@@H](CC1CCCCC1)C(N)=O)C(C)C
As to B1, the “fold change in binding affinity vs [Ala^1,Arg^19]PTH(1-31)NH2” value (“fold change in binding affinity” for short) in assay [1] was at most 6 fold; in assay [3] it was under 3 fold. For the same molecule, the figures for the IC50 in assay [2] and in assay [3] were 66 nM and 466 nM, respectively.

B2: [Ala^1,Arg^19]hPTH(1-31)NH2 Asp^30→Cha (peptide)
peptide: AVSEIQLMHNLGKHLNSMRRVEWLRKKLQ[Cha]V-NH2
modifications: N-terminus assumed
SMILES: CC[C@H](C)[C@H](NC(=O)[C@H](CCC(=O)O)NC(=O)[C@H](CO)NC(=O)[C@@H](NC(=O)[C@H](C)N)C(C)C)C(=O)N[C@@H](CCC(N)=O)C(=O)N[C@@H](CC(C)C)C(=O)N[C@@H](CCSC)C(=O)N[C@@H](Cc1c[nH]cn1)C(=O)N[C@@H](CC(N)=O)C(=O)N[C@@H](CC(C)C)C(=O)NCC(=O)N[C@@H](CCCCN)C(=O)N[C@@H](Cc1c[nH]cn1)C(=O)N[C@@H](CC(C)C)C(=O)N[C@@H](CC(N)=O)C(=O)N[C@@H](CO)C(=O)N[C@@H](CCSC)C(=O)N[C@@H](CCCNC(=N)N)C(=O)N[C@@H](CCCNC(=N)N)C(=O)N[C@H](C(=O)N[C@@H](CCC(=O)O)C(=O)N[C@@H](Cc1c[nH]c2ccccc12)C(=O)N[C@@H](CC(C)C)C(=O)N[C@@H](CCCNC(=N)N)C(=O)N[C@@H](CCCCN)C(=O)N[C@@H](CCCCN)C(=O)N[C@@H](CC(C)C)C(=O)N[C@@H](CCC(N)=O)C(=O)N[C@@H](CC1CCCCC1)C(=O)N[C@H](C(N)=O)C(C)C)C(C)C
B2: the “fold change in binding affinity” value in assay [1] is at most 6 fold; in assay [3], under 3 fold. Further, the IC50 was found to be 54 nM in assay [2] and 305 nM in assay [3].

B3: [Ala^1,Arg^19]hPTH(1-31)NH2 Leu^28→Cha (peptide)
peptide: AVSEIQLMHNLGKHLNSMRRVEWLRKK[Cha]QDV-NH2
modifications: N-terminus assumed
SMILES: CC[C@H](C)[C@H](NC(=O)[C@H](CCC(=O)O)NC(=O)[C@H](CO)NC(=O)[C@@H](NC(=O)[C@H](C)N)C(C)C)C(=O)N[C@@H](CCC(N)=O)C(=O)N[C@@H](CC(C)C)C(=O)N[C@@H](CCSC)C(=O)N[C@@H](Cc1c[nH]cn1)C(=O)N[C@@H](CC(N)=O)C(=O)N[C@@H](CC(C)C)C(=O)NCC(=O)N[C@@H](CCCCN)C(=O)N[C@@H](Cc1c[nH]cn1)C(=O)N[C@@H](CC(C)C)C(=O)N[C@@H](CC(N)=O)C(=O)N[C@@H](CO)C(=O)N[C@@H](CCSC)C(=O)N[C@@H](CCCNC(=N)N)C(=O)N[C@@H](CCCNC(=N)N)C(=O)N[C@H](C(=O)N[C@@H](CCC(=O)O)C(=O)N[C@@H](Cc1c[nH]c2ccccc12)C(=O)N[C@@H](CC(C)C)C(=O)N[C@@H](CCCNC(=N)N)C(=O)N[C@@H](CCCCN)C(=O)N[C@@H](CCCCN)C(=O)N[C@@H](CC1CCCCC1)C(=O)N[C@@H](CCC(N)=O)C(=O)N[C@@H](CC(=O)O)C(=O)N[C@H](C(N)=O)C(C)C)C(C)C
As for B3, the “fold change in binding affinity” value in assay [1] is at most 6 fold; in assay [3], under 3 fold. The results for the IC50 in assay [2] and in assay [3] were 65 nM and 226 nM, respectively.

B4: [Ala^1,Arg^19]hPTH(1-31)NH2 Gln^29→Cha (peptide)
peptide: AVSEIQLMHNLGKHLNSMRRVEWLRKKL[Cha]DV-NH2
modifications: N-terminus assumed
SMILES: CC[C@H](C)[C@H](NC(=O)[C@H](CCC(=O)O)NC(=O)[C@H](CO)NC(=O)[C@@H](NC(=O)[C@H](C)N)C(C)C)C(=O)N[C@@H](CCC(N)=O)C(=O)N[C@@H](CC(C)C)C(=O)N[C@@H](CCSC)C(=O)N[C@@H](Cc1c[nH]cn1)C(=O)N[C@@H](CC(N)=O)C(=O)N[C@@H](CC(C)C)C(=O)NCC(=O)N[C@@H](CCCCN)C(=O)N[C@@H](Cc1c[nH]cn1)C(=O)N[C@@H](CC(C)C)C(=O)N[C@@H](CC(N)=O)C(=O)N[C@@H](CO)C(=O)N[C@@H](CCSC)C(=O)N[C@@H](CCCNC(=N)N)C(=O)N[C@@H](CCCNC(=N)N)C(=O)N[C@H](C(=O)N[C@@H](CCC(=O)O)C(=O)N[C@@H](Cc1c[nH]c2ccccc12)C(=O)N[C@@H](CC(C)C)C(=O)N[C@@H](CCCNC(=N)N)C(=O)N[C@@H](CCCCN)C(=O)N[C@@H](CCCCN)C(=O)N[C@@H](CC(C)C)C(=O)N[C@@H](CC1CCCCC1)C(=O)N[C@@H](CC(=O)O)C(=O)N[C@H](C(N)=O)C(C)C)C(C)C
For the molecule B4, the “fold change in binding affinity” value in assay [1] is at most 6 fold; in assay [3] it was under 3 fold. Further, the IC50 in assay [2] turned out to be 61 nM; in assay [3], 319 nM.

B5: [Ala^1,Arg^19]hPTH(1-31)NH2 Lys^26→Cha (peptide)
peptide: AVSEIQLMHNLGKHLNSMRRVEWLR[Cha]KLQDV-NH2
modifications: N-terminus assumed
SMILES: CC[C@H](C)[C@H](NC(=O)[C@H](CCC(=O)O)NC(=O)[C@H](CO)NC(=O)[C@@H](NC(=O)[C@H](C)N)C(C)C)C(=O)N[C@@H](CCC(N)=O)C(=O)N[C@@H](CC(C)C)C(=O)N[C@@H](CCSC)C(=O)N[C@@H](Cc1c[nH]cn1)C(=O)N[C@@H](CC(N)=O)C(=O)N[C@@H](CC(C)C)C(=O)NCC(=O)N[C@@H](CCCCN)C(=O)N[C@@H](Cc1c[nH]cn1)C(=O)N[C@@H](CC(C)C)C(=O)N[C@@H](CC(N)=O)C(=O)N[C@@H](CO)C(=O)N[C@@H](CCSC)C(=O)N[C@@H](CCCNC(=N)N)C(=O)N[C@@H](CCCNC(=N)N)C(=O)N[C@H](C(=O)N[C@@H](CCC(=O)O)C(=O)N[C@@H](Cc1c[nH]c2ccccc12)C(=O)N[C@@H](CC(C)C)C(=O)N[C@@H](CCCNC(=N)N)C(=O)N[C@@H](CC1CCCCC1)C(=O)N[C@@H](CCCCN)C(=O)N[C@@H](CC(C)C)C(=O)N[C@@H](CCC(N)=O)C(=O)N[C@@H](CC(=O)O)C(=O)N[C@H](C(N)=O)C(C)C)C(C)C
On to B5, for which the “fold change in binding affinity” value in assay [1] was at most 6 fold. In addition, the IC50 turned out to be 172 nM in assay [2] and 1870 nM in assay [3].
The like results for AVSEIQLMHNLGKHLNSMRRVEWL[Cha]KKLQDV-NH2 [[Ala^1,Arg^19]hPTH(1-31)NH2 Arg^25→Cha] were, in that order, at most 6 fold, 103 nM and 2710 nM.

The record behind these values is patent US20100081612A1 (GENERAL HOSPITAL, published 2010).
